Laboratory results reported in patent US11059842B2, “Monosaccharide amine and 3-nitro-2-phenyl-2H-chromene based inhibitors of glucose kinases” (UNIVERSITY OF SOUTH CAROLINA, priority 2019, dated 2021).

How the values were obtained:
[1] = substrate: O=C[C@H](O)[C@@H](O)[C@H](O)[C@H](O)CO; assay: TcGlcK Michaelis-Menten kinetics and substrate range; type: biochemical, Trypanosoma cruzi; settings: other: substrate; triplicate runs
Procedure: D-Glucose was also tested as a control with alternative substrates. The protein expression work for TcGlcK and HsHxKIV were each made possible through the E. coli strain BL21(DE3) system. Purification of each enzyme was performed through cobalt-NTA chromatography followed by size-exclusion chromatography; assessment of purity was performed by SDS-PAGE. In enzymatic assays, a time-optimum (TOPT) was determined to be 120 seconds for TcGlcK and 600 seconds for HsHxKIV; all assays were run at room temperature. A general reaction scheme included a first reaction in which the monosaccharide, ATP, and Mg^2+ react with the enzyme, e.g., TcGlcK, forming a hexose-phosphate and ADP. […] Fluorescence of NADPH was monitored using a fluorescence microplate reader with […] wavelengths of 340 nm and 485 nm, respectively.
(§1) FIG. 4 and FIG. 5 present typical Michaelis-Menten enzyme kinetic plots for D-glucose. […] Michaelis-Menten constant (KM) values, which were used as the set final assay concentrations of substrates D-glucose and ATP for the primary screens, were determined for both TcGlcK and HsHxKIV in triplicate runs. […]
All phosphorylated hexoses were shown getting converted into their corresponding products by G6PDH, in abundant quantities through a 30-second time frame. […]

[2] = substrate: O=C[C@H](O)[C@@H](O)[C@H](O)[C@H](O)CO; assay: HsHxKIV Michaelis-Menten kinetics; type: biochemical, Homo sapiens; settings: other: substrate; triplicate runs
Procedure: D-Glucose was also tested as a control with alternative substrates. The protein expression work for TcGlcK and HsHxKIV were each made possible through the E. coli strain BL21(DE3) system. Purification of each enzyme was performed through cobalt-NTA chromatography followed by size-exclusion chromatography; assessment of purity was performed by SDS-PAGE. In enzymatic assays, a time-optimum (TOPT) was determined to be 120 seconds for TcGlcK and 600 seconds for HsHxKIV; all assays were run at room temperature. A general reaction scheme included a first reaction in which the monosaccharide, ATP, and Mg^2+ react with the enzyme, e.g., TcGlcK, forming a hexose-phosphate and ADP. In a second reaction, hexose-phosphate with the assistance of glucose-6-phosphate dehydrogenase (G6PDH) and NADP^+ was converted to the lactone form of the hexose-phosphate and NADPH. Fluorescence of NADPH was monitored using a fluorescence microplate reader with […] wavelengths of 340 nm and 485 nm, respectively.
as §1

| Protein | Km [1] [mM] | Km [2] [mM] |
| --- | --- | --- |
| TcGlcK (Trypanosoma cruzi strain CL Brener) (protein) MNIKELSLHELCEELKTPAWNVPLTFVGDVGGTSARMGFVREGKNDSVHACVTRYSMKRKDITELIEFFNEIIELMPASVIKRVKAGVINVPGPVTGGAVGGPFNNLKGIARLSDYPKALFPPGRSAILNDLEAGGFGVLAVSDAHVFSEYFGVMWEGTQWRTCEQEPAGSVIGRGRCLVLAPGTGLGSSLIYYNPMNQQHIVVPLELGSQTIPMRKDIDYIQTLHAELKLLPNYENMVSGAGLEFHYRQVVRGSRPPCSAGEIAKLASEGDANACKAMKKYHEYLMRVGSEASMALLPLTIVLVGDNIVNNAFFYRNPQNLKEMHREALNHEMERFGFQSRVTYLRQKKLLNLNLMGCYRCGLDLSVGKKQKAQL | 0.40 |  |
| HsHxKIV (Homo sapiens) (protein) MLDDRARMEAAKKEKVEQILAEFQLQEEDLKKVMRRMQKEMDRGLRLETHEEASVKMLPTYVRSTPEGSEVGDFLSLDLGGTNFRVMLVKVGEGEEGQWSVKTKHQMYSIPEDAMTGTAEMLFDYISECISDFLDKHQMKHKKLPLGFTFSFPVRHEDIDKGILLNWTKGFKASGAEGNNVVGLLRDAIKRRGDFEMDVVAMVNDTVATMISCYYEDHQCEVGMIVGTGCNACYMEEMQNVELVEGDEGRMCVNTEWGAFGDSGELDEFLLEYDRLVDESSANPGQQLYEKLIGGKYMGELVRLVLLRLVDENLLFHGEASEQLRTRGAFETRFVSQVESDTGDRKQIYNILSTLGLRPSTTDCDIVRRACESVSTRAAHMCSAGLAGVINRMRESRSEDVMRITVGVDGSVYKLHPSFKERFHASVRRLTPSCEITFIESEEGSGRGAALVSAVACKKACMLGQ |  | 43 |
